pIC50: −log10 of the molar value.
Columns and labels:
integrin αvβ3 = molecular target: T1, integrin αvβ3 (Homo sapiens, UniProt P05106+P06756); assay: Cell binding experiment in U87MG tumor cells
T1 construct: endogenous in cells; host or cells: U87MG tumor cells
Experimental: A cell binding experiment was carried out in HT1080-FAP and U87MG tumor cells, and test results are shown in Part B and Part C of FIG. 52, respectively.

[1] = system: HT1080-FAP tumor-bearing mice; conditions: mouse, in vivo
Experimental: Then, under anaesthesia with isoflurane, the ^68Ga-FAPI-RGD (V-25) group was subjected to MicroPET imaging after administration for 0-240 min, respectively, and the other groups were subjected to MicroPET imaging after administration for 0-120 min, respectively. In FIG. 53, Part A, Part C and Part E show maximum-density MicroPET projection images of the HT1080-FAP tumor-bearing mice (n=3) at different time points after the intravenous injection of the three groups of mice, respectively, and Part B, Part D and Part F show uptake in various organs or tissues (such as blood, liver, kidney, tumors and muscles) of the three groups of mice at different time points after the injection, respectively, where three uptake amounts in each group correspond to, from left to right, 0.5 h, 1 h and 2 h after the injection, respectively. […] A specific binding property of the ^68Ga-FAPI-RGD (V-25) to integrin αvβ3 and FAP in vivo is proven by a blocking experiment. The ^68Ga-FAPI-RGD (V-25) and C(RGDfK) or FAPI-02 were co-injected into HT1080-FAP tumor-bearing mice, and MicroPET imaging results and organ uptake results are shown in FIG. 54. […]

[2] = system: tumors of patients (pancreatic cancer, non small cell lung cancer, small cell lung cancer, nasopharyngeal carcinoma); conditions: human, in vivo, iv
Experimental: In a clinical trial in the real world, a patient with pancreatic cancer (one), a patient with non small cell lung cancer (one), a patient with small cell lung cancer (one) and a patient with nasopharyngeal carcinoma (one) were used as subjects. An intravenous injection dose (1.8-2.2 MBq [0.05-0.06 mCi]/kg) of the ^68Ga-FAPI-RGD (V-25) was calculated based on a body weight of each subject. After intravenous injection was performed for 3 h, data was obtained by a hybrid PET/CT scanner (Discovery MI, GE Health care, Milwaukee, WI, USA). A maximum standard uptake value (SUVmax) was automatically calculated by using a region of interest (ROI) drawn on a transaxial image. The SUVmax value of the ^68Ga-FAPI-RGD (V-25) targeting two targets is higher than that of ^68Ga-FAPI-46 targeting the single target, FAP, in different types of tumors, and the SUVmax value is increased by about 30-50%, proving that the design of targeting two targets can improve the number and utilization efficiency of effective receptors in tumors, thereby improving the uptake in tumors.

T1 sequence (P06756 31-889 limits assumed): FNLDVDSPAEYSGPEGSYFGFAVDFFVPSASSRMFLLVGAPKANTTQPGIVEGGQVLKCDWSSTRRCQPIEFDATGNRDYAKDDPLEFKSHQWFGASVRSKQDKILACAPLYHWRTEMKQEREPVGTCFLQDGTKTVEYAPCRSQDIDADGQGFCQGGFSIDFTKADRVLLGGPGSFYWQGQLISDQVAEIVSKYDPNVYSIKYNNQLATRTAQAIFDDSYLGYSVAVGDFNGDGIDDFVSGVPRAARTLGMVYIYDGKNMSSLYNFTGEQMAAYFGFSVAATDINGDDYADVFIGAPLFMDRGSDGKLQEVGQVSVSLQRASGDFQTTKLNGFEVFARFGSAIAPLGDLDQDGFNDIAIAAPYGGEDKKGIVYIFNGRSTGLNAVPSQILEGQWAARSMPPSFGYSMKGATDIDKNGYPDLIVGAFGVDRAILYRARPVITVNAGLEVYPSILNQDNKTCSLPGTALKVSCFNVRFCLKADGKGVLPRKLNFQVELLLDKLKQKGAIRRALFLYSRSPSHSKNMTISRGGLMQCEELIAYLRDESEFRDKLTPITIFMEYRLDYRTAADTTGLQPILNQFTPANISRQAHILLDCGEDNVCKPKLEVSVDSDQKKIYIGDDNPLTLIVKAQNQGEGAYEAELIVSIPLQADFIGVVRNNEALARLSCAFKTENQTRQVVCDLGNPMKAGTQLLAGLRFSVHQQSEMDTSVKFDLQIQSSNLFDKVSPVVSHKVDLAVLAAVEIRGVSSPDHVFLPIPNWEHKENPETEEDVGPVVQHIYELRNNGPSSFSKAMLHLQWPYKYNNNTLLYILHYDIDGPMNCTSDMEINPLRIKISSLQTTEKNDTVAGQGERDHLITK
T1 sequence (P06756 891-1048 partner limits assumed): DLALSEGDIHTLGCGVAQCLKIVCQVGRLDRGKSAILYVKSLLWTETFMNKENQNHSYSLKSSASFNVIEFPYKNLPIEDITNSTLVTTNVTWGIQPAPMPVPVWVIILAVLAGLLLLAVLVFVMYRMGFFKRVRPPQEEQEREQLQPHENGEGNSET
T1 sequence (P05106 27-788): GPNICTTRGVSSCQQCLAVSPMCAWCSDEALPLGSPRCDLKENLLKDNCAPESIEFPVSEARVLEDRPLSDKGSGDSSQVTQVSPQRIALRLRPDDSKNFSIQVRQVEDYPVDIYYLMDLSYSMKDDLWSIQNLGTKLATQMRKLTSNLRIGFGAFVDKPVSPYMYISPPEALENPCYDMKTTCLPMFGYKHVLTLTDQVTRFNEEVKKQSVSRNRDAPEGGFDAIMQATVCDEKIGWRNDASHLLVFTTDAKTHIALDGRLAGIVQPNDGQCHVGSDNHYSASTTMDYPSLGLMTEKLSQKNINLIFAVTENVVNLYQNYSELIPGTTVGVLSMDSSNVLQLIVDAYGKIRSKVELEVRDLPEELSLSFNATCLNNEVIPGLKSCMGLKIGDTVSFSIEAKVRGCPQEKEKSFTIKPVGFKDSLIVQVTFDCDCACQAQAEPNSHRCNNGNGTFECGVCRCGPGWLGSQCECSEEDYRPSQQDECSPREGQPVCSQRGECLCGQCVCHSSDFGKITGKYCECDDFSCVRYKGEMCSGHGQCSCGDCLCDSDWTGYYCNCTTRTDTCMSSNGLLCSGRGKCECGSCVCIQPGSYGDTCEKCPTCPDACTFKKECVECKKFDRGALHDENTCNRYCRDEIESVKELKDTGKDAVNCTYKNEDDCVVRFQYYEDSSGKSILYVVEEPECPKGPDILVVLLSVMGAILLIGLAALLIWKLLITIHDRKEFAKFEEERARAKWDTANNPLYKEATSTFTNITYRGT

For N#C[C@@H]1CCCN1C(=O)CNC(=O)c1ccnc2ccc(OCCCN3CCN(C(=O)CCOCCOCCNC(=O)[C@H](CCC(=O)NCCOCCOCCC(=O)NCCCC[C@@H]4NC(=O)[C@@H](Cc5ccccc5)NC(=O)[C@H](CC(=O)O)NC(=O)CNC(=O)[C@H](CCCNC(=N)N)NC4=O)NC(=O)CN4CCN(CC(=O)O)CCN(CC(=O)O)CC4)CC3)cc12 [^68Ga-FAPI-RGD (V-25), metal not drawn], the pIC50 (integrin αvβ3) was 7.72, the “tumor uptake compared with monomers” value [1] was “higher” and the “SUVmax value compared with 68Ga-FAPI-46” value [2] was “higher”. The “increase of SUVmax value over 68Ga-FAPI-46” value [2] was 30-50%.
